# Residue numbers refer to the chain shown, from its start.
# B1: S. cerevisiae Atg23 FL (recombinant, purified) (natural protein, UniProt Q06671 1-453, looked up)
# chain: MELNQVLEKKEQILQYLGTLVGLHEKALSDVNSASQVTSIRKDITICLNDLCRINDLLVSHDGLLKREIGSLLRDKQELLELNEREQLLWKERKSWHIKQETDAAPADYVIDKDAIITISSHHRTSLNKYIESVGAENTILSNTDDSDAMIEEVQNAESSADQMIRNYKLLQLSHKQAKSEIIRLETLLRDFKKDNKFIEEELKRQSGRIRSEMGNIDFHLSKIEESKHQLMKRIGFESPLTQEKSLSEKIFNLRLSSADEDYNERQTINMKNFVHMKDLIELKIEDLQEQLMRNKNESSTVLTQRELWLDCQKKVGDLESKLITKLRSSSNSKIPPNEMSEMINSTIQYLNNLLDSSDEKLTTTLISNERDVLSKACEELHSESTTAQDGSSALPSKPIDIHKSHKGSNASSNLKQPSTPSFLVASKSPPKIGISESVVNANKNDAISKKVE
# B2: Atg23 M3 (recombinant, purified) (natural protein, S. cerevisiae, UniProt Q06671 1-453, looked up)
# chain: B1 chain with K66E, R67E
# B3: Atg23 M4 (recombinant, purified) (natural protein, S. cerevisiae, UniProt Q06671 1-453, looked up)
# chain: B1 chain with K66E, R67E, K296E
# B4: Atg23 M5 (recombinant, purified) (natural protein, S. cerevisiae, UniProt Q06671 1-453, looked up)
# chain: B1 chain with K66E, R67E, R74E, R85E, K296E
# Target: the molecule itself
# Assay: AUC
row,Protein,stoichiometry N
1,B1,2
2,B2,2
3,B3,2
4,B4,2
